Experimental data from paper PMC3089955.

T1: DENV-2 NS1 wild type without hexa-histidine tag (Dengue virus serotype 2 (DENV-2), strain 16681), P29990
T1 chain: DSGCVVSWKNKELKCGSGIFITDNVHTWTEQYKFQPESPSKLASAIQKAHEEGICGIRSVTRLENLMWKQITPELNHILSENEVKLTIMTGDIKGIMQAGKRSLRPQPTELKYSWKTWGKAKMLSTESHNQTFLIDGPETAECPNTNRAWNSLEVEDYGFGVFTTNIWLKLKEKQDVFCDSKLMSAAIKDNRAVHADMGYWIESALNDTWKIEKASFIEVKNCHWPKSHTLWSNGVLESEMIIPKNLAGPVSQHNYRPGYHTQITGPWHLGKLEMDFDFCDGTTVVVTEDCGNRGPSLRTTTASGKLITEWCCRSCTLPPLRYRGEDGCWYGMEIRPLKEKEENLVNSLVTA


Legend:
[1] = target: DENV-2 NS1 N130Q with carboxy-terminal hexa-histidine tag (Dengue virus serotype 2 (DENV-2), strain 16681); assay: non-reducing SDS-PAGE with Western blot
[2] = target: T1, DENV-2 NS1 wild type without …; assay: SEC; conditions: remark: other sources report otherwise

Molecule	stoichiometry N [1]	stoichiometry N [2]
DENV-2 NS1 N130Q with carboxy-terminal hexa-histidine tag (natural protein)	2	
DENV-2 NS1 wild type without hexa-histidine tag, P29990 776-1127 (natural protein) DSGCVVSWKNKELKCGSGIFITDNVHTWTEQYKFQPESPSKLASAIQKAHEEGICGIRSVTRLENLMWKQITPELNHILSENEVKLTIMTGDIKGIMQAGKRSLRPQPTELKYSWKTWGKAKMLSTESHNQTFLIDGPETAECPNTNRAWNSLEVEDYGFGVFTTNIWLKLKEKQDVFCDSKLMSAAIKDNRAVHADMGYWIESALNDTWKIEKASFIEVKNCHWPKSHTLWSNGVLESEMIIPKNLAGPVSQHNYRPGYHTQITGPWHLGKLEMDFDFCDGTTVVVTEDCGNRGPSLRTTTASGKLITEWCCRSCTLPPLRYRGEDGCWYGMEIRPLKEKEENLVNSLVTA		6
